One may read the Kd as the free concentration of one partner at which half of the binding sites on the other are occupied at equilibrium, for simple one-to-one binding.

The results in this text go back to paper PMC5951847, “Substrate sequence selectivity of APOBEC3A implicates intra-DNA interactions”.

The target of series [1] is T1, A3A(E72A) (Homo sapiens, UniProt P31941 1-199, E72A). The series can be described thus: fluorescence anisotropy; pH 5.5; 50 mM MES pH 6.0, 100 mM NaCl, 0.5 mM TCEP, room temperature overnight, 10 nM TAMRA-oligo; competition with 300 nM A3A(E72A); pH series: acetate 4.0-5.0, MES 5.5-6.5, HEPES 7.0-8.0, Tris 8.5-9.0. As to conditions: protein: recombinant; tags: His6-SUMO removed by Ulp1 (untagged); label: 5' TAMRA. For orientation: In fluorescence polarisation assays a small probe gives low polarisation when free and higher when bound to something large.
T1 sequence (P31941 whole entry E72A): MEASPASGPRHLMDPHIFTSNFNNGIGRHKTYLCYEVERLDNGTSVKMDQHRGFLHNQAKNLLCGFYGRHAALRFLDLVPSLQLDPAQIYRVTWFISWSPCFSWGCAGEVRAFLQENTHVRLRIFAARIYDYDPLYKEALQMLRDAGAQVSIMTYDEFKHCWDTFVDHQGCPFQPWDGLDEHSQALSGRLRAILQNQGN

In series [2] the target is T1, A3A(E72A). Kind of series: fluorescence anisotropy; pH 6.0; 50 mM MES pH 6.0, 100 mM NaCl, 0.5 mM TCEP, room temperature overnight, 10 nM TAMRA-oligo; competition with 300 nM A3A(E72A); pH series: acetate 4.0-5.0, MES 5.5-6.5, HEPES 7.0-8.0, Tris 8.5-9.0. As to conditions: protein: recombinant; tags: His6-SUMO removed by Ulp1 (untagged); label: 5' TAMRA; hairpin.

Regarding AAAATTCAAAAAA (ssDNA) [Poly A-TTC (pH series, 4A-TTC-6A)], the Kd in the series with A3A(E72A) [1] amounted to 68 ± 3 nM.
With GCCATCAAAAGATGGG (structured_DNA) [Hairpin-AAA], the Kd with A3A(E72A) [2] was 676 ± 399 nM.
